Source: the supplement of paper PMC12636428

Test system: Saccharomyces cerevisiae
Experiment: transcriptional activation domain activity (GFP:mCherry ratio, weighted mean of sorted bins, harmonized to initial dataset scale) (arbitrary fluorescence ratio units); higher = stronger transcriptional activation
Conditions: beta-estradiol 1 µM; induction time 4 h
How it was run: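 Values are activation activity, found as the read-weighted mean of bin median fluorescence, averaged across barcodes and then mapped linearly onto the initial dataset scale. Barcoded protein tiles fused to an estradiol-inducible synthetic transcription factor were integrated at the URA3 locus of GFP-reporter yeast diploids. Cells were induced for 4 hours at 30 °C with 1 uM beta-estradiol in SC, sorted into 8 bins by GFP:mCherry ratio, and barcode-sequenced, with tiles under 50 reads discarded.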

Sequence	transcriptional activation domain activity
PAPAAERREFEEELEARAPGGRGGFRGPRGGPRGPAPAPAPPAAERREFIEDL	28600
FFLLIALLPAWVVGFCIVFSIAMSCAAYDTLQVSLVATVSNDLFRNKISIWWV	42000
FGYSPSAVWVFLFCFGQGLISFAFLPFFFYLVSICIIILGGLLFCIWVVYIYQ	28400
KEVKEGEEGEKPKRGRKRKEAPAENGEEKEEKEPAAKKAKPASKAAPGSKPAS	12700
VLSRVTGLEHKQMCKIILGLIIDLLLPSGGDTSRILRTVRALLDFLYLAQLPS	73900
MRSMKRTFFFFFLVFDLRYYSVLYYILYLYPFPFFLFLFIFYFPLFLFLSTAS	54500
AHACIVLVVCEIDKTLGHSKHLLMIWLMRLLLLILNIMTIVGLFWSFLKCLDV	70900
NFGLMSGLYLYVCILGDSWCPSIDLIFNWMSYAYLWNVYIFLLEIIPVTLMVL	72100
DFDVNEFDPQVLFSTGTRTVEFMDDQNQPSSASAFLSTARPNHYSTHTPTTDV	75300
KSKAANAKGKKKGKKGKKNKKGKKGKKAKNAKKAKAVKVAKAPVAKAPAPAAK	17700
SNVFPTQLLARHQKEIKRFKRMLAIVRWFEVCFALLRIKYLMKLFWFSVEFCN	50000
MNQTSRFFLLFFFFFFFYFFPFSHLLPSFLLLFLSFYFSPSYLLLCLFSLIFY	42600
DLVFGIIIVRSLLIPVVLVFFFTFACFHIYLSHTSFFPAFYSSILGFHPLAFS	73300
RKEGGGHGSSSRRDRDRDRDRSDRHRSSKKSSSSNNHDADGTAAAAADASGVH	18200
AKEERKAKKKAEKEKAAVAGDAMEVDDSADKKEKKEKKRKRRESEAAGAVKVE	13300
MFLFVFSLVCIFYYCCYLLLLLLSSWLYSQQFVLFWSLTVHISCCPSFFLNES	37400
EKLVEEVQETPKDKKKRKRDVEAEDVEASAKSEKKLKKKKSKSSAEEAAPADA	30900

Sequence	transcriptional activation domain activity
PYQSSVDVLPRPLPVLRWTWVIVGISCFYFWCVSIPAPFLLFRICFPHFNLLT	50500
PTGRSSTPTSASSTRARRTRGSASARSSRAAGGGSCSSTCRSPPGRVPRTSVS	36800
FHLPCLSLRWWRWCWGHYRLILVVLCLVLLPCLVFLDTIYVYKAFFQIKLENT	34500
EIESVVMLYVSGRLLRIIEVGLVEGRPDVQAIVQALVARLICVTVSATAKWAR	36000
VIYRIDKDELTTGMLLVRNNLVELMAASTGPAAHLRVLVVDLVAPSFRSIPRG	44400
LWGHVVMEFCCWDFVRRASGLDSILLLLVYIFSSLPYFFFVLFVCHIAILLLT	34500
DREHRSKHRRHSSDSRSRSHSHRERRKDKSKHREKEKDKDRKKRKKEKERRRD	36500
MHRATNYYFSFSALLYLVFIFLRCSLALGLFFCFMFLSFEFFCFLMVLCLFCI	33200
NHWVFGAFSECFIPGVFLSLHPLTFFLDWTIGFVSDVYTFDAHDPSILELLIF	47000
MSDAAAPAPAPVEEVKPAEAAPEVVPAPRPLRRSPRPRRLRPLRPPPPSAAAE	28400
MPIGPIIMLYPMRKHHSILPCKIQRLLEYLWSFLLIQKDWYRYEQTNKYSIMA	40100
RPSGASTPVQPTPEPDNKKRRRGKGGDDAETDGKPVKKAKRGRKPKVVQEPKV	33200
YPFLLKLCFDIFLLPLHFFYFPFFFSLITHYIFFFTGTLSHLYICFILLCLFL	36400
VFLHHFRRAIFPLCNLVCSSWNVITFSHPWMIFAIIMFLHWSWILGLQKGMLI	83600
TSIFGSNNNTGGTMFGSNTNTSSPFGGGGTSNTSIFARRFALSLALLRSPTSY	30900
EDRSEKRKRKRDDEVEPKKSKSKWKPEEKSDEDPKSTPKSNGGKRRRPERPEK	27300
SAGYYSRVSFFFFSNYHLIILHVFFFFFFFVYWVYFSSSDFFFLLGLTIFCFF	57900
